Data on 18 molecules can be found in patent publication US20240043504A1 (published 2024).

B1: mAb10937 (antibody, V domains shown)
VH: QITLKESGPTLVKPTQTLTLTCTFSGFSLSTNVVGVGWIRQPPGKALEWLALIYWNDDKRYSPSLKSRLTITKDTSKNQVVLTMTNMDPVDTATYYCAHGPTGDYFDYWGQGTLVTVSS
VL: not shown
B2: mAb10969 (antibody, V domains shown)
VH: QVQLVESGGGVVQPGRSLRLSCAASGFTFSSYAMHWVRQAPGKGLEWVAVISYDGSNKYYADSVKGRFTISRDNSKNTLYLQMNSLRAEDTAVYYCARDGRTITMVRGVIDDAFDIWGQGTMVTVSS
VL: not shown
B3: mAb10930 (antibody, V domains shown)
VH: EVQLVESGGGLVQPGRSLRLSCAASGFTFDDYAMYWVRQAPGKGLEWVSGISWNSGSIGYADSVKGRFTISRDNAKNSLYLQMNSLRAADTALYYCAKDKDWNSRGYYYYGMDVWGQGTTVTVSS
VL: not shown
B4: mAb10984 (antibody, V domains shown)
VH: EVQLVESGGGLVQPGGSLRLSCAASGLTVNRNYMSWVRQAPGKGLEWVSLIYSGGSTYYADSVKGRFTISRDNSKNTLYLQMNSLRLEDTAVYYCARGELGIPYGMDVWGQGTTVTVSS
VL: QSVLTQPPSVSAAPGQKVTISCSGSSSNIGNNYVSWYQQLPGTAPKLLIYDNNKRPSGIPDRFSGSKSGTSATLGITGLQTGDEADYYCGTWDSSLSAGVFGGGTKLTVLG
B5: mAb10923 (antibody, V domains shown)
VH: QVQLVQSGAEVKKPGASVKVSCKASGYTFINYYIHWVRQAPGQGLEWMGWINPNSGGTNYAQKFQGRVTMTRDTSISTAYMELSRLRSDDTAVYYCAIITIFGVVTWFDPWGQGTLVTVSS
VL: not shown
B6: mAb10921 (antibody, V domains shown)
VH: EVQLVESGGGLVQPGGSLRLSCAASGITVSSNYMSWVRQAPGKGLEWVSVIYSGGSTFYADSVKGRFTISRHNSKNTLYLQMNSLRAEDTAVYYCARERNFDAFDIWGQGTMVTVSS
VL: DIQMTQSPSSVSASVGDRVTITCRASQGISSWLAWYQQKPGKAPKLLIYAASSLQSGVPSRFSGSGSGTDFTLTISSLQPEDFATYYCQQANSFPLFTFGPGTKVDIKR
B7: mAb10920 (antibody, V domains shown)
VH: QVQLVESGGGVVQPGRSLRLSCAASGFTFSYYGMHWVRQAPGKGLEWVAVIWYDGSNKFYADSVKGRFTISRDNSKNTLYLQMNSLRAEDTAVYYCAAARPGYYYGMDVWGQGTTVTVSS
VL: DIQMTQSPSSLSASVGDRVTITCRASQGISNYLAWFQQKPGKAPNSLIYAASSLQRGVPSKFSGSGSGTDFTLTISSLQPEDFATYYCQQYNSYPRTFGQGTKVEIKR
B8: mAb10989 (antibody, V domains shown)
VH: QVQLVQSGAEVKKPGASVKVSCKASGYIFTGYYMHWVRQAPGQGLEWMGWINPNSGGANYAQKFQGRVTLTRDTSITTVYMELSRLRFDDTAVYYCARGSRYDWNQNNWFDPWGQGTLVTVSS
VL: QSALTQPASVSGSPGQSITISCTGTSSDVGTYNYVSWYQQHPGKAPKLMIFDVSNRPSGVSDRFSGSKSGNTASLTISGLQAEDEADYYCSSFTTSSTVVFGGGTKLTVLG
B9: mAb10936 (antibody, V domains shown)
VH: QVQLVESGGGVVQPGRSLRLSCAASGFTFRNYGMHWVRQAPGKGLEWVSVIWYDGSNRYYADSVKGRFTISRDTSKNTLYLQMNSLRAEDTAVYYCARDPPITGTTGGDAFDIWGQGTMVTVSS
VL: not shown
B10: mAb10915 (antibody, V domains shown)
VH: EVQLVESGGGLVQPGGSLRLSCAASGFTVSSNYMNWVRQAPGKGLEWVSVIYSGGSTFYADSVKGRFTISRHNSKNTLYLQMNSLRPEDTAVYYCARDLGGYFDYWGQGTLVTVSS
VL: not shown
B11: mAb10939 (antibody, V domains shown)
VH: EVQLVESGGGLVQPGGSLRLSCAASGLTVSSNYMNWVRQVPGKGLEWVSVIYSGGSKFYVDSVKGRFTISRHNSKNTLYLQMNSLRPEDTAVYYCTRDAQYYGMDVWGQGTTVTVSS
VL: DIQMTQSPSSLSASVGDRVTITCRASQSISTYLHWYQQKPGEAPKLLIYAASSLQSGVPSRFSGSGSGTDFTLTISSLQPEDFATYYCQQSYSTPPEIFGQGTKLEIKR
B12: mAb10932 (antibody, V domains shown)
VH: EVQLVESGGGLVQSGGSLRLSCAASGLTVSSNYMSWVRQAPGKGLEWVSVIYSGGSTFYSDSVKGRFTISRHNSKNTLYLQMNSLRAEDTAVYYCARARGDAFDIWGQGTMVTVSS
VL: not shown
B13: mAb10982 (antibody, V domains shown)
VH: EVQLVESGGGLVQPGGSLRLSCAASGLTVSSNYMSWVRQAPGKGLEWVSVIYSGGTTYYADSVKGRFTISRHNSKNTLSLQMNSLRAEDTAVYYCARGEGANYYGMDVWGQGTTVTVSS
VL: QSVLTQPPSVSGAPGQRVTISCTGSSSNIGTGYDVHWYQQLPGTAPKLLIYGNSNRPSGVPDRFSGSKSGTSASLAITGLQAEDEADYYCQSYDSSLSGYVVFGGGTKLTVLG
B14: mAb10985 (antibody, V domains shown)
VH: EVQLVESGGGLVQPGRSLRLSCAASGFTFDDYAMHWVRQAPGKGLEWVSGISWNRGSIGYADSVKGRFTISRDNAKNSLYLQMSSLRAEDTALYYCAKDGERWDSVVVPSARNGMDVWGQGTTVTVSS
VL: QSVLTQPPSVSGAPGQRVTISCTGSSSNIGAGYDVHWYQQLPGTAPKLLIYGNSNRPSGVPDRFSGSKSGTSASLAITGLQAEDEADYYCQSYDSSLSGSYVFGTGTKVTVLG
B15: mAb10986 (antibody, V domains shown)
VH: EVQLVESGGGLVQPGGSLRLSCAASEFTVSSNYMSWVRQAPGKGLEWVSVIYSGGSTFYADSVKGRFTISRDNSKNTLYLQMNSLRAEDTAVYYCARALPYGDLHFDYWGQGTLVTVSS
VL: QSVLTQPPSVSGAPGQRVTISCTGSSSNIGTGYDVHWYQQLPGTAPKLLIYGNTNRPSGVPDRFSGSKSGTSASLAITGLQAEDEADYYCQSYDSSLSDSYVFGTGTKVTVLG
B16: mAb10934 (antibody, V domains shown)
VH: not shown
VL: DIQMTQSPSSLSASVGDRVTITCQASQDIWNYINWYQQKPGKAPKLLIYDASNLKTGVPSRFSGSGSGTDFTFTISSLQPEDIATYYCQQHDDLPPTFGQGTKVEIKR
B17: mAb10938 (antibody, V domains shown)
VH: EVQLVESGGGLVQPGGSLRLSCAVSGFTVSSNYMSWVRQAPGKGLEWVSLIYSGGSTFYADSVKGRFTISRHNSKNTLYLQMNSLRAEDTAVYYCAREGGYSYDYNYWGQGTLVTVSS
VL: DIQMTQSPSSLSASVGDRVTITCQASQDIRNYLNWYQQKPGKAPKLLIYDASNLETGVPSRFSGIGSGTDFTFTISSLQPEDIATYYCQQYDNLPITFGQGTRLEIKR
B18: mAb10935 (antibody, V domains shown)
VH: EVQLVESGGGLVQPGGSLRLSCAASGFTVSSNYMSWVRQAPGKGLEWVSLIYSGGSTYYADSVKGRFTISRHNSKNTLYLQMNSLRSEDTAVYYCARVPLGDYYYGMDVWGQGTTVTVSS
VL: DIQMTQSPSSLSASVGDRVTITCQASQDINKYLNWYQQKPGKAPKLLIYDASNLETGVPSRFSGSGSGTDFTFTISSLQPEDIATYYCQQSDNLPLTFGGGTKVEIKR

The test deals with SARS-CoV-2 RBD-hFc (SARS-CoV-2). Kind of test: Luminex beads.
Regarding B1, the binding result is on record as “binds”.

For B2, the binding result is on record as “binds”.

On to B3, for which the binding result was “binds”.

For B4, the binding result was “binds”.

Consider B5, for which the binding result is “binds”.

As for B6, the binding result is “binds”.

Turning to B7, the binding result is “binds”.

In the case of B8, the binding result is recorded as “binds”.

On to B9, for which the binding result was “binds”.

Turning to B10, the binding result is given as “binds”.

With B11, the binding result is “binds”.

B12: the binding result is listed as “binds”.

With B13, the binding result was “binds”.

In the case of B14, the binding result is reported as “binds”.

B15: the binding result is “binds”.

As to B16, the binding result is given as “binds”.

Turning to B17, the binding result is reported as “binds”.

With B18, the binding result is given as “binds”.
